For assay [1], the target named is c-Met on human cancer cells (human) (UniProt P08581).
The target is the same in assay [2]. This is another data set of the same source.

For antibody 5D5 (ATCC Cat. # HB11895), in assay [1], the relative cell viability (%) of MKN45 cells, 72 h came out at 53%. For the same substance, in assay [2], the Akt phosphorylation (%) in Caki-1 cells, 5 ug/ml, 30 min is 100%.

The values are drawn from patent publication US9717715B2.
